Experimental data: patent US20240352438A1, “MEANS AND METHODS FOR DETOXIFYING OCHRATOXIN A” (DSM Austria GmbH, priority 2021, published 2024)
Substitutions are numbered along the chain they refer to.

B1: 146 (protein)
chain: MTTRTRILTAFLSLLAANACAADAAPAAPHTVVLRAARMFDGASGKLVDHPQLTIVGNKIVRIAQGDKAEVPAGAEVVDLGDATLLPGFIDAHVHLSGQSSDNWYGDFFDNMMRFPAEQALYGAYYARITLEAGFTSVRDVGSRDWVALGLRNAIDAGKVPGPRMLVSNYAVGSTGGHADQDPIPPHKLPLAGPLQGVCNGPEECRAAVRYQIKYGANVIKFMPSGGVLSLSDPVDAPELSQDEMNAVIGESHAWGRKVAAHAHGDKAAKMAVAAGVDSIEHGSFIEDDTLRAMKAKNVYLVPTISAIAHVEEKIGTFPPVIAEKGRAAAAHLRQTFRHAVQIGVPIALGTDAGVGAHGSNAREFRYMVENGLTPAQALLAGTANAARLLGTFDRVGTLEAGKLADVVAVPGNPIADITVTERPLFVMKDGVVVRRDAVR
modifications: exemplary polypeptide
B2: 152 (protein)
chain: B1 chain with R144T, A171P, I308V
modifications: exemplary polypeptide
B3: 156 (protein)
chain: B1 chain with R144T, I184V, I308V
modifications: exemplary polypeptide
B4: 158 (protein)
chain: B1 chain with R144T, I184V, G354A
modifications: exemplary polypeptide
B5: 151 (protein)
chain: B1 chain with R144T, A171P, I308A
modifications: exemplary polypeptide
B6: 157 (protein)
chain: B1 chain with R144T, I184V, F318Y
modifications: exemplary polypeptide
B7: 154 (protein)
chain: B1 chain with R144T, A171P, G354A
modifications: exemplary polypeptide
B8: 159 (protein)
chain: B1 chain with R144T, I308A, F318Y
modifications: exemplary polypeptide
B9: 150 (protein)
chain: B1 chain with R144T, A171P, I184V
modifications: exemplary polypeptide
B10: 153 (protein)
chain: B1 chain with R144T, A171P, F318Y
modifications: exemplary polypeptide
B11: 148 (protein)
chain: B1 chain with R144T, A179S
modifications: exemplary polypeptide
B12: 155 (protein)
chain: B1 chain with R144T, I184V, I308A
modifications: exemplary polypeptide
B13: 24 (protein)
chain: MELAIRNGIVFNGKEIIGKTNIYVREGKIVEVSREDHSAKMEIDAKDMFVMPGLIDAHIHLSGIKGGSLLKIMFEKPEYRVLRAAKWLEKLLLAGFTTVRDCGETVSLALKRALNDGIIGGPKVIAAGKPITQTFGHGELSHDVPLEFSKTMSFSEFCDGMESCIHAARKVLRDGADFIKIFATGGVLSQRDRPEHPQLSYEEIRAIVNEAEKVNTYVAAHAHGDRGARIAIEAGVKTLEHGTLLKDETLKLMKEKNVTLTPTLTIQELIFKYGKQIGVDEWGLQKITSVRENIANVVRKAKEYGVTIISGTDLGFETGLEEIDMGKNWMETVLLVERGGLSPIEALRASTYNAAMAIGINAGVIEIGKDADIIIINGDPTLNVREISKITHVVKNGKLTVENKSIKG
modifications: exemplary polypeptide
B14: 25 (protein)
chain: MFDLGIKNGNVFSGKDNLGKTNIYVNNGKIVKISKENLEVRQEIDAKDMFVMPGLIDSHIHLSGIKGGSLLKIMFEKPEYRILRASKWLEKLLLAGFTTVRDCGDPISISLAKGVKDGIIIGPNIIAAGRPITQTFGHGEISHDIPLEFSEVLGFSEICDGVESCIHSARKVLREGSDFIKIFATGGVLSQRDRPENPQLTYEEIKSIVNEAEKIGTYVAAHAHGDKGARIAIEAGIKTLEHGTMLKDDTMKLMIEKDVSLTPTLTIQEVIYKYGKQIGVDEWGLEKITEVRNSISSVVKKAKEYGIRIITGTDLGFETGLSDIDIGKNWVELTLLVERGGLTPKEALQAATYNSALSLRINSGLIDTDRNADIIIIDGDPEENISDIAKIDHVIKNGNIIVEKGKIINYS
modifications: exemplary polypeptide
B15: 23 (protein)
chain: MQYDVAIKNGNVFTGTEFIGKMNIYISNGKISKVSKEDLNAKQEIDAKDMLVMPGLIDAHMHISGLKGGSLLKIMFEKPEYRALRATKWLEKLLLAGFTTVRDCGEPISISLKRAVNEGYIKGPKIIAAGKPITQTFGHGEFSHDIPLEFSISLGFSEICDGTESCIHAARKVLRDGSDFIKIFATGGVLSQRDRPDMPQLSFDEIRAIVNEAEKAGTYVAAHAHGDKGARIAIEAGIKTLEHGSLLKEDTLKLMLEKNISLTPTLTITEIIYKYGKTIGVDEWGLEKIVEVRENLHKVLRKAKELGITIITGTHMGFETGLEDYDIGKNWTEILLLTEVGGLSNEEALRAATYNSAKALGLNSGLIDEGKDADIIVIDGNPLENIKDVSKVVHVIKQGKLEVLDSKIINNY
modifications: exemplary polypeptide

test: OTA detoxification activity assay (specific activity, fluorescence reduction ex/em 390/450 nm); format: biochemical; details: pH 6.0; SEQ ID NO: 1 = 100%
Method in brief: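 Recombinant enzyme preparation with 200 ng/mL OTA in 100 mM sodium phosphate, at pH 6.0 and pH 7.5, 37° C. Degradation followed as the fall in fluorescence at ex/em 390/450 nm. Specific activity taken from the initial linear slope; one unit degrades 1 μmol OTA per min at a starting OTA of […].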

Row | Molecule | Specific OTA detoxification activities in % compared to the enzyme of SEQ ID NO: 1, pH 6.0
1 | B1 | 172%
2 | B2 | 65%
3 | B3 | 144%
4 | B4 | 157%
5 | B5 | 75%
6 | B6 | 78%
7 | B7 | 38%
8 | B8 | 84%
9 | B9 | 89%
10 | B10 | 72%
11 | B11 | 40%
12 | B12 | 116%

same assay, conditions: pH 7.5; SEQ ID NO: 1 = 100%

Row | Molecule | Specific OTA detoxification activities in % compared to the enzyme of SEQ ID NO: 1, pH 7.5
13 | B1 | 112%
14 | B2 | 74%
15 | B3 | 109%
16 | B4 | 92%
17 | B5 | 86%
18 | B6 | 63%
19 | B7 | 38%
20 | B8 | 93%
21 | B9 | 62%
22 | B10 | 77%
23 | B11 | 19%
24 | B12 | 124%

test: Thermostability assay: residual OTA detoxification activity after 10 min incubation at 45-99° C. (T50); format: physicochemical; details: 0.1 mg/mL protein in 20 mM Tris-HCl pH 7.5, residual OTA detoxification activity relative to 4° C. reference aliquot
Description: Stability was determined in terms of thermostability. Notwithstanding, a person having skill in the art is aware that stability towards high temperature (e.g. more than 30° C.) often correlates with stability towards other non-standard conditions such as stability towards acidic or basic pH (e.g. below pH 6.5 or above pH 7.5, respectively), towards elevated salt concentrations, organic solvents or drying.
To determine the kinetic stability of the produced enzymes, thermostability assays were performed. To this end, purified protein samples were diluted to a protein concentration of 0.1 mg/mL in 20 mM Tris-HCl buffer pH 7.5 and aliquots were incubated in a thermocycler for 10 min at either 45, 55, 65, 75, 80, 85, 90, 95 or 99° C. After this incubation, the aliquots were stored at 4° C. until further analysis. A reference aliquot was stored at 4° C. throughout the incubation. Subsequently, all aliquots were assayed for residual OTA detoxification activity using the assay described in Example 3. Residual enzyme activities were calculated relative to the reference aliquot. The temperature range in which 50% of the initial activity was lost after the incubation (T50), in relation to the reference aliquot was determined.

Row | Molecule | T50 (temperature at which 50% of the initial activity was maintained)
25 | B13 | >95 °C
26 | B14 | >95 °C
27 | B15 | >95 °C

test: Enzymatic activity comparison: activity remaining after 65° C. for 10 min at pH 6.0, relative to SEQ ID NO: 1; format: physicochemical; details: not given
Description: To compare the temperature behavior and thermostability of selected enzymes to one another, enzyme was incubated at 65° C. for 10 min at pH 6.0. The enzymatic activity remaining after incubation was compared to the remaining activity of the enzyme of SEQ ID NO: 1 after incubation, the latter being set to 100%, see Table 16.

Row | Molecule | Enzymatic activity remaining after incubation, compared to SEQ ID NO: 1 (set to 100%)
28 | B1 | 45%
29 | B2 | 38%
30 | B3 | 34%
31 | B4 | 9%
32 | B5 | 30%
33 | B6 | 73%
34 | B7 | 32%
35 | B8 | 30%
36 | B9 | 22%
37 | B10 | 34%
38 | B11 | 35%
39 | B12 | 35%
